Source: the supplement of paper PMC9170038

Columns and labels:
[1] = tested on: K4 kissing-loop RNA reporter; assay: apparent KD of K4 kissing-loop reporter; higher = weaker reporter binding; conditions: Eterna round: R107;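 further: bound reporter read as fluorescence of individual clusters on recovered sequencing chips by microscopy, with normalized cluster intensities fitted with a binding model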
Method: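 RNA-MaP round R107: designed RNA switches with theophylline, tryptophan, arginine or FMN aptamers are transcribed on-chip within common flanks. They are titrated with a labelled K4 kissing-loop RNA reporter in RNA-MaP buffer (100 mM Tris pH 7.5, 80 mM KCl, 4 mM MgCl2), without ligand or with the indicated ligand. Median apparent KD per design.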

[2] = tested on: MS2 coat protein; assay: apparent KD of MS2 coat protein; designed switch direction (-1 OFF switch, 1 ON switch): -1; higher = weaker reporter binding
Outline: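 On Illumina chips, designed RNA switches with common flanks were made by stalled E. coli RNA polymerase. Titrations with SNAP-549-labelled MS2 coat protein, doubling from 0.7 or 1.5 nM to 3 µM, were done with no input, with 200 uM small-molecule ligand, or with an oligonucleotide input. Apparent KD is the median per design over clusters, from curve fits of normalised cluster fluorescence.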

[3] = input ligand: theophylline 20 uM
[4] = input ligand: tryptophan 2.4 mM
[5] = Eterna round: R95, input ligand: FMN 200 uM
[6] = Eterna round: R95, input ligand: microRNA oligo, concentration not stated
[7] = Eterna round: R95, input ligand: none
[8] = input ligand: microRNA oligo, concentration not stated

AAAUACAUUUUAUUAUAUAACUUUUCAGAAGGAGCGUGGAAGUUCACAGGUAGGUCGCUGAAUAUUGGACUAGUGAUGUUAGUUA [JR_Nu_SSArginiA_Sub021]
apparent KD of K4 kissing-loop reporter ([1]; input ligand: FMN 200 uM): 222 nM | apparent KD of K4 kissing-loop reporter ([1]; input ligand: arginine 13.2 mM): 217 nM | apparent KD of K4 kissing-loop reporter ([1]; input ligand: none): 253 nM | apparent KD of K4 kissing-loop reporter [1, 3]: 225 nM | apparent KD of K4 kissing-loop reporter [1, 4]: 179 nM

AAAUAGAUCAGUCACCCAGUGAUGUUGGAAGGAGCGUGCGAAAGCACAGGUAGGUCGCCAAAACCUAAGUGGCUGAUCAAAAUAA [#SwitchBubble 4 #K4Early]
apparent KD of K4 kissing-loop reporter ([1]; input ligand: FMN 200 uM): 838 nM | apparent KD of K4 kissing-loop reporter ([1]; input ligand: arginine 13.2 mM): 445 nM | apparent KD of K4 kissing-loop reporter ([1]; input ligand: none): 819 nM | apparent KD of K4 kissing-loop reporter [1, 3]: 523 nM | apparent KD of K4 kissing-loop reporter [1, 4]: 587 nM

AAAUAGAUCAGUCAUCCAGUGAUGUUGGAAGGAGCGUGCGAAAGCACAGGUAGGUCGCCAAAAUAAAAGUGGCUGAUCAAAAUAA
apparent KD of K4 kissing-loop reporter ([1]; input ligand: FMN 200 uM): 629 nM | apparent KD of K4 kissing-loop reporter ([1]; input ligand: arginine 13.2 mM): 374 nM | apparent KD of K4 kissing-loop reporter ([1]; input ligand: none): 302 nM | apparent KD of K4 kissing-loop reporter [1, 3]: 594 nM | apparent KD of K4 kissing-loop reporter [1, 4]: 302 nM

AAAUAUUCGAGUGAUGUUCGAUAAAUUUCAGAGGAUAUGCUUAAAAGCAGAAGGCUGUAUUUCUAUUUGUUAUGAAAUUUUAUAA [JR_ExcFMNA_Sub003]
apparent KD of K4 kissing-loop reporter ([1]; input ligand: FMN 200 uM): 103 nM | apparent KD of K4 kissing-loop reporter ([1]; input ligand: arginine 13.2 mM): 113 nM | apparent KD of K4 kissing-loop reporter ([1]; input ligand: none): 87.3 nM | apparent KD of K4 kissing-loop reporter [1, 3]: 109 nM | apparent KD of K4 kissing-loop reporter [1, 4]: 73.3 nM

UUUUAACAUGAGGAUCACCCAUGUGAGGAUAUCGAAUUUUAUAUUAAUAUUAAUAAAACGAGAAGGCACAUUUU [JMF 8] (puzzle: Exclusion 1)
apparent KD of MS2 coat protein [2, 5]: 60.8 nM | apparent KD of MS2 coat protein [2, 6]: 49.6 nM | apparent KD of MS2 coat protein [2, 7]: 49.6 nM

UUUUAACAUGAGGAUCACCCAUGUGAGGAUAUCGAUAUUUAUAUUAAUAUUAAUAAAACGAGAAGGCACAUUUU [JMF 7] (puzzle: Exclusion 1)
apparent KD of MS2 coat protein [2, 6]: 65.2 nM

UUUUAACAUGAGGAUCACCCAUGUGAGGAUAUCGAUUUUUAUAUUAAUAUUAAUAAAACGAGAAGGCACAUUUU [JMF 11] (puzzle: Exclusion 1)
apparent KD of MS2 coat protein [2, 6]: 123 nM

UUUUAACAUGAGGAUCACCCAUGUGAGGAUAUCGUUUUUUAUAUUAAUAUUAAUAAAACGAGAAGGCACAUUUU [JMF 10] (puzzle: Exclusion 1)
apparent KD of MS2 coat protein [2, 6]: 121 nM

UUUUACAAGCCAGAUCCUCACAUGAGGAUCACCCAUGUGCUCGUCUGUUUUUGUACUAUCACGUUUGUGAUAGUGUU [Level Boss var2-09] (puzzle: Sensor v3, turn-off variant 1)
apparent KD of MS2 coat protein [2, 5]: 189 nM | apparent KD of MS2 coat protein [2, 6]: 14.6 nM | apparent KD of MS2 coat protein [2, 7]: 189 nM

UUUUACAGAGGAUAUGCGAAUAAAUAAAACUUUUUUUUUUAACAUGAGGAUCACCCAUGUAGAAGGCUGAUUUU [Ex2 #25] (Eterna round: R97, puzzle: Exclusion 2)
apparent KD of MS2 coat protein ([2]; input ligand: FMN 200 uM): 40 nM | apparent KD of MS2 coat protein ([2]; input ligand: none): 48.4 nM

UUUUAGUAAGGAUAUGGUUAGAUCUACUUCGGUAGAUCUAACCAGAAGGUACAUGAGGAUCACCCAUGUAGAUA [Mod of Brourd 19 - Jieux - Exclusion 4] (Eterna round: R97, puzzle: Exclusion 4)
apparent KD of MS2 coat protein ([2]; input ligand: FMN 200 uM): 25.2 nM | apparent KD of MS2 coat protein ([2]; input ligand: none): 25.3 nM

UUUUGGCAAGCGAGAUCCCACAUGAGGAUCACCCAUGUUGACCAUGGUUUCCAUGGUCAUUUUGCUCGUCUUGUGUG [jl TITIN mod 1] (Eterna round: R97, puzzle: Sensor, turn-off variant 1)
apparent KD of MS2 coat protein ([2]; input ligand: FMN 200 uM): 31.3 nM | apparent KD of MS2 coat protein ([2]; input ligand: none): 31.8 nM

UUUUGUUUUUUAUUUUUUAACAUGAGGAUCACCCAUGUAACGAGCAGAUCUUCAUGCAAGCUUUUUGCUCGUCUUAU [Sensor v3 - Turn-off variant 1 - 42] (puzzle: Sensor v3, turn-off variant 1)
apparent KD of MS2 coat protein [2, 5]: 42.2 nM | apparent KD of MS2 coat protein [2, 6]: 16.1 nM | apparent KD of MS2 coat protein [2, 7]: 60.6 nM

UUUUUACAUGAGGAUCACCCAUGUCAGGAUAUCAUUAUAUUUUAUUAUUUUAUUUAUAUGAGAAGGGACUAUUA [My solution] (Eterna round: R96, puzzle: Exclusion 1)
apparent KD of MS2 coat protein ([2]; input ligand: FMN 200 uM): 127 nM | apparent KD of MS2 coat protein [2, 8]: 79.2 nM | apparent KD of MS2 coat protein ([2]; input ligand: none): 105 nM

UUUUUACAUGAGGAUCACCCAUGUCAGGAUAUCAUUAUAUUUUAUUAUUUUAUUUAUAUGAGAAGGGACUAUUA [My solution] (puzzle: Exclusion 1)
apparent KD of MS2 coat protein [2, 6]: 93.8 nM

UUUUUACAUGAGGAUCACCCAUGUGAGGAUAUGAGGGUUAGCUUAAAUGGGCUGACUUUCAGAAGGCACAUGAA [JR_Ex1_Sub059] (Eterna round: R97, puzzle: Exclusion 1)
apparent KD of MS2 coat protein ([2]; input ligand: FMN 200 uM): 280 nM | apparent KD of MS2 coat protein ([2]; input ligand: none): 128 nM

UUUUUAUAUGAAGGAUAUACUUAACAUGAGGAUCACCCAUGUGGUGUUGUGAGUGAGUGAGUUUAGUAGAAGGUCAAGUAUUUC [JMF's solution 43] (Eterna round: R96, puzzle: Exclusion NG 2)
apparent KD of MS2 coat protein ([2]; input ligand: FMN 200 uM): 752 nM | apparent KD of MS2 coat protein [2, 8]: 329 nM | apparent KD of MS2 coat protein ([2]; input ligand: none): 731 nM

UUUUUAUAUGAAGGAUAUACUUAACAUGAGGAUCACCCAUGUGGUGUUGUGAGUGAGUGAGUUUAGUAGAAGGUCAUUUCUUUU [JMF's solution 78] (Eterna round: R96, puzzle: Exclusion NG 2)
apparent KD of MS2 coat protein ([2]; input ligand: FMN 200 uM): 440 nM | apparent KD of MS2 coat protein [2, 8]: 411 nM | apparent KD of MS2 coat protein ([2]; input ligand: none): 462 nM

UUUUUCAGGCCAGAUCCUCACAUGAGGAUCACCCAUGUGCUCGUCUGUUUUCGCUCUUUCUUUUUUUUGGUUGUGCU [Level Boss var2-18] (puzzle: Sensor v3, turn-off variant 1)
apparent KD of MS2 coat protein [2, 5]: 174 nM | apparent KD of MS2 coat protein [2, 6]: 31.2 nM | apparent KD of MS2 coat protein [2, 7]: 259 nM

UUUUUCUGGCAAGGAUAUCCUGUGCGGUUCCGGCUCGUGUCUGUUACAUGAGGAUCACCCAUGUGGGAGAAGGUGCCUGUGGUU [Design 88] (Eterna round: R96, puzzle: Exclusion NG 2)
apparent KD of MS2 coat protein ([2]; input ligand: FMN 200 uM): 94.2 nM | apparent KD of MS2 coat protein [2, 8]: 26.9 nM | apparent KD of MS2 coat protein ([2]; input ligand: none): 35.3 nM

UUUUUGUAUGAAGGAUAUACUUAACAUGAGGAUCACCCAUGUGGUGUUGUGAGUGAGUGAGUUUAGUAGAAGGUCAAUUAUUUU [JMF's solution 24] (Eterna round: R96, puzzle: Exclusion NG 2)
apparent KD of MS2 coat protein ([2]; input ligand: FMN 200 uM): 843 nM | apparent KD of MS2 coat protein [2, 8]: 346 nM | apparent KD of MS2 coat protein ([2]; input ligand: none): 361 nM

UUUUUUUUGUUUUUUGUUUACAUGAGGAUCACCCAUGUGACGAGUUUAUGGGUGAACAAGCUUUUUGCUCGUCUUAU [Sensor v3 - Turn-off variant 1 - 5] (puzzle: Sensor v3, turn-off variant 1)
apparent KD of MS2 coat protein [2, 5]: 52.4 nM | apparent KD of MS2 coat protein [2, 6]: 17.8 nM | apparent KD of MS2 coat protein [2, 7]: 140 nM

UUUUUUUUUGUGAGGAUAUACUUUUUUUUUUUUUUGUAGAAGGCACAUGAGGAUCACCCAUGUUUUUUUUUCUC [JR_BME4_Sub029] (puzzle: Brourd's mod of Exclusion 4)
apparent KD of MS2 coat protein [2, 6]: 13.2 nM
